Assay results taken from paper PMC6846478.

Legend:
[1] = biological target: T1, NLuc-P54nrb full length (human, UniProt Q15233 1-471); assay: NanoBRET
T1 sequence: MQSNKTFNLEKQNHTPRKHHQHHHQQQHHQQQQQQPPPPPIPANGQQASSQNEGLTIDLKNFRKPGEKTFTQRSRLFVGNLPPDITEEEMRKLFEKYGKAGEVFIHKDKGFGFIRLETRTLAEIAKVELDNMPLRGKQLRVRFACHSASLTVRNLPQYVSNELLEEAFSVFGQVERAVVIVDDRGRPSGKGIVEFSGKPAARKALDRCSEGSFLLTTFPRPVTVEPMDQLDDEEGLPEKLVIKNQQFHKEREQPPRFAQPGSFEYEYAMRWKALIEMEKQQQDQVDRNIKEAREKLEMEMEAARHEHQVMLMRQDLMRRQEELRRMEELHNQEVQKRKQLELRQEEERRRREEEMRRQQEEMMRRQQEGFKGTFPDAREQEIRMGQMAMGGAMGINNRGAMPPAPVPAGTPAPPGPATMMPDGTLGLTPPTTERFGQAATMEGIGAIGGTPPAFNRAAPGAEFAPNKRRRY

[2] = biological target: T2, RNase H1 CAT R179A (human, UniProt O60930 81-286, R179A); assay: NanoBRET
T2 sequence: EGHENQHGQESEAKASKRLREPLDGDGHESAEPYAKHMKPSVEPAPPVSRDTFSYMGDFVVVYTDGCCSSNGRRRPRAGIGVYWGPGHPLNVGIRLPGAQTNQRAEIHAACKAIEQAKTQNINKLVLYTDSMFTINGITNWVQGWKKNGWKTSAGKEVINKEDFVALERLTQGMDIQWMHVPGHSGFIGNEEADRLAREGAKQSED

[3] = biological target: T3, RNase H1 CAT N151A (human, UniProt O60930 81-286, N151A); assay: NanoBRET
T3 sequence: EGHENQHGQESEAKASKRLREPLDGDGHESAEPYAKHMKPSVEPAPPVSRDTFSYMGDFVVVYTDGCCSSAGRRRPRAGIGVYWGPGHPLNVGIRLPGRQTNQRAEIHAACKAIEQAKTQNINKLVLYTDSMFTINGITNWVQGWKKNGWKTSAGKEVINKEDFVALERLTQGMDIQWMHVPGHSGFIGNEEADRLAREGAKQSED

[4] = biological target: T4, RNase H1 HBD K59A,K60A (human, UniProt O60930 1-80, K59A;K60A); assay: NanoBRET
T4 sequence: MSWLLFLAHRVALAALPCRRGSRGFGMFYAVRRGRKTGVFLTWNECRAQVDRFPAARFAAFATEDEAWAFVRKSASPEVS

[5] = biological target: T1, NLuc-P54nrb full length; assay: competition

B1: ASO 766638 (2'-F gapmer) (XNA)
DNA: CTGCTAGCCTCTGGATTTGA
modifications: full PS; 5-10-5 gapmer, 2'-F wings, DNA gap
In the case of B1, the Kd [1] is reported as about 3 nM.

B2: PO DNA/RNA heteroduplex (DNA:RNA)
DNA: CTGCTAGCCTCTGGATTTGA
RNA: UCAAAUCCAGAGGCUAGCAG
B2 showed a binding signal [2] of over 2 fold weaker than WT CAT, a binding signal [3] of over 7 fold weaker than WT CAT and a binding signal [4] of about 10 fold weaker than WT HBD.

B3: PO DNA (ssDNA)
DNA: CTGCTAGCCTCTGGATTTGA
B3: no binding [5].

B4: PO RNA (ssRNA)
RNA: CUGCUAGCCUCUGGAUUUGA
B4: no binding [5].
